B1: NETO1 (parent)
chain: KTSLLDQLTNTSGTVIGVTSCIVI
B2: STK38L (parent)
chain: FLPGGDMMTLLMKKDTLTEEETQF

Variants of: B1
Test: protein stability index of a GFP-peptide fusion (GPS, HEK-293T) (PSI 1-6); higher = more stable
Conditions: c terminus: a fixed tail appended
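Also: lentivirally expressed fusions sorted by FACS into six bins by GFP to DsRed ratio, PSI derived from sequencing read proportions per bin multiplied by bin number.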

Protein stability index of substitutions, site by site:
T11: L 1.92; M 3.29; N 2.29; P 3.64; Q 2.81; R 1.74; S 2.15; V 2.65; W 3.6; Y 2.33
S12: A 2.96; D 3.07; E 2.87; F 2.37; G 3.53; H 2.69; I 2.89; K 2.89; L 2.43; M 1.87; N 3.41; P 2.51; Q 2.56; T 2.78; V 3.35; W 1.75; Y 3.62
G13: A 2.12; C 2.5; D 2.26; E 3.52; F 3.7; H 2.65; I 2.57; K 2.9; L 2.42; M 3.17; N 3.9; P 2.94; R 3.34; S 3.19; T 2.23; V 2.66; W 3.1; Y 3.2
T14: A 2.03; C 2.61; D 2.58; E 3.18; F 2.82; G 2.11; H 2.62; I 2.98; K 3.88; L 2.47; M 2.62; N 2.98; P 2.69; Q 3.41; R 3.41; S 1.94; V 3.29; W 2.37; Y 2.64
V15: A 2.65; C 2.06; D 3.39; E 2.04; F 2.44; G 2.98; H 1.99; I 3.08; K 3.5; L 4.43; M 2.87; N 2.74; P 3.31; Q 2.33; R 2.45; S 2.96; T 3.07; W 2.59; Y 3.74
I16: A 2.44; C 3.8; D 2.52; E 2.85; F 3.68; H 2.67; K 3.1; L 2.98; M 2.62; N 2.27; P 2.76; Q 2.94; R 2.79; S 3.79; T 3.23; V 2.48; W 2.03; Y 2.12
G17: A 2.71; C 3.42; D 3.37; E 2.69; F 2.72; H 3.23; I 3.43; K 2.64; L 3.83; M 2.55; N 3.28; P 3.45; Q 2.36; R 2.88; S 3.25; T 3.32; V 2.91; W 2.9; Y 1.98
V18: A 3.38; C 1.92; D 2.55; E 2.2; F 2.48; G 3.24; H 2.95; I 2.84; K 3.8; L 3.12; M 3.92; N 4.17; P 2.84; Q 2.66; R 2.23; S 3.67; T 2.93; W 4.09; Y 3.56
T19: A 3.16; C 2.73; D 1.59; E 2.68; F 2.52; G 3; H 4.49; I 2.2; K 2.97; L 3.78; M 2.5; N 3.28; P 1.91; Q 3.55; R 3.08; S 3.29; V 2.91; W 2.06; Y 2.79
S20: A 3.66; C 2.91; D 2.83; E 4.15; F 2.87; G 2.14; H 2.97; I 3.08; K 3.19; L 2.79; M 2.89; N 3.04; P 2.98; Q 2.53; R 4.13; T 2.37; V 2.44; W 3.86; Y 2.8
C21: A 2.7; D 2.31; E 2.83; F 3.65; G 3.12; H 2.2; I 2.7; K 3.29; L 3.29; M 2.41; N 3.1; P 2.13; Q 3.44; R 3.31; S 3.06; T 2.88; V 3.29; W 2.62; Y 2.72
I22: A 2.12; C 3.54; D 2.39; E 2.32; F 2.56; G 2.36; H 2.1; K 2.35; L 2.08; M 3.35; N 1.72; P 2.37; Q 2.15; R 1.87; S 1.45; T 3.07; V 3.37; W 3.04; Y 2.81
V23: A 2.03; C 3.17; D 1.95; E 2.98; F 2.28; G 1.79; H 1.97; I 2.81; K 3.04; L 3.18; M 2.56; N 2.01; P 1.65; Q 2.87; R 2.65; T 2.85; W 2.74; Y 2.66
I24: A 1.71; C 1.64; D 2.54; E 2.21; F 1.79; G 1.79; H 1.99; K 2.04; L 3.2; M 2.45; N 2.08; P 2.33; Q 1.62; R 1.74; S 1.94; T 1.6; V 2.2; W 2.92; Y 2.55

Variants of: B2
Test: as above
Conditions: c terminus: a fixed tail appended

Protein stability index: each site, then its substitutions
E19: P 2.11; M 1.66; I 2.02
M7: P 3.67; F 2.23; A 4.11; G 3.16; E 4.77
F1: M 4.39; S 4.29; P 4.76; L 3.71; D 5.25
M8: N 4.12; T 4.3; A 3.75; S 4.02; E 4.21; D 4.8; C 3.33
D15: K 1.66; V 2.2; S 1.76
Q23: W 1.43; C 2.24; V 2.25; S 2.91
T22: L 2.12; M 1.97
G4: M 2.35; T 3.34; Q 3.36
P3: E 2.32; L 1.86; M 2.18; Q 2.31
L10: R 3.32; Y 2; T 3.78; K 3.11
G5: P 2.94; V 2.79; E 3.72; H 2.75; C 2.94; R 3
E21: K 2.16; T 1.74; P 1.65; S 2.19; G 2.89; Q 2.04
L2: V 1.78; C 1.42; I 2.07; F 3.08; T 2.54; Q 2.15; Y 3.68
T16: Q 2.17; F 1.89; N 2.51
T18: D 2.29; F 1.73
E20: M 1.89; Q 1.76; K 1.75; C 2.27
D6: W 1.4
T9: Y 2; F 2.16; R 1.69
K14: N 1.81; M 1.97; P 2.46
K13: L 2.05; S 2.56
F24: C 1.77
M12: F 2.54
L11: E 4.25; I 2.53
L17: D 3.2
